Source: patent US20240182596A1 (TUBULIS, published 2024)

Experiments:
[1] = biological target: T1, human NaPi2b on NaPi2b-positive cell lines OVCAR-3 and HCC-78 (human, UniProt O95436 1-690); assay: flow cytometry on OVCAR-3 cells; table column Binding KD (nmol/L), FACS (OVCAR-3)
T1 construct: Endogenous protein
T1 sequence: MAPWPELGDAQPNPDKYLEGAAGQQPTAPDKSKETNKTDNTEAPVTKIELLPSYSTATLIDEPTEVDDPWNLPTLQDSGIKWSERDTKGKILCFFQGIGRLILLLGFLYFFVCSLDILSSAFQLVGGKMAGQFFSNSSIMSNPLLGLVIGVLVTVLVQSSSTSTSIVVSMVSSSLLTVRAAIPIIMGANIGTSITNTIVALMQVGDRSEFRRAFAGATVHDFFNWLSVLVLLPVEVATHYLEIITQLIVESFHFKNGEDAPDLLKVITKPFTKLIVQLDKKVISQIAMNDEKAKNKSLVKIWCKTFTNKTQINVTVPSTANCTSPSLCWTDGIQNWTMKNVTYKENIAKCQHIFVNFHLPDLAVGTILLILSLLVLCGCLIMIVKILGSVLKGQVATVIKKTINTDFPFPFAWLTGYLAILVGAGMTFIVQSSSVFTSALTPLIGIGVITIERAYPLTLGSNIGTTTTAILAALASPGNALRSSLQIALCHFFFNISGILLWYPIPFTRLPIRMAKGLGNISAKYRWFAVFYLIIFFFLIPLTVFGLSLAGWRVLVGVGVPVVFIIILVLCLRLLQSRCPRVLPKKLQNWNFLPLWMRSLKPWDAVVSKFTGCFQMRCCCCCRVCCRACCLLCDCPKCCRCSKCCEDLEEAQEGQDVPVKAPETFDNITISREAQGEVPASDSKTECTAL

[2] = biological target: T2, human Napi2c-mCherry on HEK293 cells (human, UniProt Q8N130 1-599); assay: flow cytometry on HEK293 cells expressing human Napi2c-mCherry (panel Napi2c-HEK293), MFI ratio to the non-specific binding control
T2 construct: whole, on cells; also called Napi2c (SLC34A3); not shown: mCherry fusion
T2 sequence (looked up): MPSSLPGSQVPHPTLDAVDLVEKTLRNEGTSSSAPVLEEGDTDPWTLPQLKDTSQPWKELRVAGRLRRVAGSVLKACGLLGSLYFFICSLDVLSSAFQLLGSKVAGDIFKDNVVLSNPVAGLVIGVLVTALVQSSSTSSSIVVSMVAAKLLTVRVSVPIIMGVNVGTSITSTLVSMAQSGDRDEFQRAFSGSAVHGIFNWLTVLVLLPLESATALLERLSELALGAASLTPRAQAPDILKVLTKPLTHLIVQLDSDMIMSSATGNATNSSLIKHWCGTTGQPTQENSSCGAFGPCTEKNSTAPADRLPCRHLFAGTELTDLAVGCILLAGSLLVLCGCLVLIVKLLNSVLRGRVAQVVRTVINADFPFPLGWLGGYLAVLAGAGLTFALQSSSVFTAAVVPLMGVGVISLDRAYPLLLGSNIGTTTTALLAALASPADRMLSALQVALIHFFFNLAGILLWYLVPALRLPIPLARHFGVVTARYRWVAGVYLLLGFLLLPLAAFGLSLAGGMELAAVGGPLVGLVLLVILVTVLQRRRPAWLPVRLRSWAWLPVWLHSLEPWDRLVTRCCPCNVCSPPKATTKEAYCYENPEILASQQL

[3] = biological target: T1, human NaPi2b on NaPi2b-positive cell …; assay: flow cytometry on NaPi2b-positive OVCAR-3 cells, Alexa-dye-labeled anti-human IgG H+L secondary antibody, MFI ratio normalized to the non-specific binding control
Procedure: To determine concentration-dependent binding, NaPi2b-positive OVCAR-3 and HCC-78 were incubated with antibodies in concentrations ranging from 0.00075 to 30 μg/ml, stained with an Alexa-dye-labeled anti-human IgG H+L secondary antibody (Thermo Fisher Scientific), and analyzed by flow cytometry. Mean fluorescence intensity (MFI) ratios were normalized to the non-specific binding control. The assay was performed in duplicates and data points were analyzed by a non-linear regression using a one-site specific binding model using Prism 9 software.

FcγRIIIa (CD16) (V158) = biological target: T3, FcγRIIIa (CD16) (V158) (Homo sapiens, UniProt P08637); assay: Lumit FcγRIIIa (V158) Binding Immunoassay (Promega), left panel FcγRIIIa (CD16) (V158), competition with Tracer-LgBiT for FcγR-SmBiT, falling luminescence means binding, n=1
T3 construct: m21 joins both polymorphic variants; also called V158 variant of m21
Procedure: Luminescence is measured on a microplate reader Infinite M200 Pro (Tecan). Graphs show n=1.
Luminescence was measured on a microplate reader Infinite M200 Pro (Tecan). Graphs show n=1.

[4] = biological target: T4, human Napi2b-mCherry on HEK293 cells (human, UniProt O95436 1-690); assay: flow cytometry on HEK293 cells stably expressing human full-length NaPi2b-mCherry, Alexa-dye anti-human IgG H+L secondary antibody, MFI ratio, one-site specific binding fit; the Kd table prints no unit, the concentration axis is in nM
T4 construct: also called Napi2b (SLC34A2); HEK293 cells overexpressing Napi2b
T4 sequence: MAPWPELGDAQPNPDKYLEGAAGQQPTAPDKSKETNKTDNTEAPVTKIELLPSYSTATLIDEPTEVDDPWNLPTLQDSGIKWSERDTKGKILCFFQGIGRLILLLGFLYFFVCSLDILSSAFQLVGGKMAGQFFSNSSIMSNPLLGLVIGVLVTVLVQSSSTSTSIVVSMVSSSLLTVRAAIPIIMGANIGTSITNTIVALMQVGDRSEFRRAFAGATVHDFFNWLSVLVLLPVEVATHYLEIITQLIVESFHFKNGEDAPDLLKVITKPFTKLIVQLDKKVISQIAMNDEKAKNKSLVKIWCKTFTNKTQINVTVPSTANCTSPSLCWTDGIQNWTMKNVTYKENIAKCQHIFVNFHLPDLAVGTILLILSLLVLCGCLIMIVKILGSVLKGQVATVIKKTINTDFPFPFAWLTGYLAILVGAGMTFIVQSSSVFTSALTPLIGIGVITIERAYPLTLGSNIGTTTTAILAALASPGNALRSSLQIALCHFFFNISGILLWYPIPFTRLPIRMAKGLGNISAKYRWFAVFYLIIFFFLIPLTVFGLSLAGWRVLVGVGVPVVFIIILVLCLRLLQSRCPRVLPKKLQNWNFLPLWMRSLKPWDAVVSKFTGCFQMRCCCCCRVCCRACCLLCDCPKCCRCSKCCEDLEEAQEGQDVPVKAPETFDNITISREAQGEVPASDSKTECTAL
Source text: (§1) HEK293 cells stably overexpressing human and rat Napi2b were generated by stable integration of a human or rat full-length Napi2b-mCherry-(GGGS)3x-mCherry expression construct under control of a human EF1 promoter and a Puromycin-selection cassette under a CMV promoter into the parental HEK293 cell line. In brief, cells were transfected with the linearized plasmids using Lipfectamine 2000 (Thermo Fisher) and selected with Puromycin antibiotic. Cells were then single cell cloned in 96-well plates via serial dilution under continuous antibiotic selection. Clones were screened for target expression via flow cytometry and mCherry fluorescence via flow cytometry and fluorescence microscopy. Target- and mCherry-positive clones were expanded and used for further experiments. […] Binding of antibodies was investigated on mCherry-positive cells. Mean fluorescence intensity (MFI) ratios were normalized to the secondary antibody control. The assay was performed in duplicates and data points were analyzed by a non-linear regression using a one-site specific binding model to derive KD values using Prism 9 software.

[5] = biological target: T5, HEK293 cyno-NaPi2B-mCherry (Macaca fascicularis, UniProt A0A2K5UHY1); assay: flow cytometry on HEK293 cells stably expressing cynomolgus full-length NaPi2b-mCherry, Alexa-dye anti-human IgG H+L secondary antibody, MFI ratio, one-site specific binding fit; the Kd table prints no unit, the concentration axis is in nM
T5 construct: full-length mCherry fusion stably expressed on HEK293 cells; also called cynomolgus full-length NaPi2b-mCherry on HEK293 cells
T5 sequence (target on cells): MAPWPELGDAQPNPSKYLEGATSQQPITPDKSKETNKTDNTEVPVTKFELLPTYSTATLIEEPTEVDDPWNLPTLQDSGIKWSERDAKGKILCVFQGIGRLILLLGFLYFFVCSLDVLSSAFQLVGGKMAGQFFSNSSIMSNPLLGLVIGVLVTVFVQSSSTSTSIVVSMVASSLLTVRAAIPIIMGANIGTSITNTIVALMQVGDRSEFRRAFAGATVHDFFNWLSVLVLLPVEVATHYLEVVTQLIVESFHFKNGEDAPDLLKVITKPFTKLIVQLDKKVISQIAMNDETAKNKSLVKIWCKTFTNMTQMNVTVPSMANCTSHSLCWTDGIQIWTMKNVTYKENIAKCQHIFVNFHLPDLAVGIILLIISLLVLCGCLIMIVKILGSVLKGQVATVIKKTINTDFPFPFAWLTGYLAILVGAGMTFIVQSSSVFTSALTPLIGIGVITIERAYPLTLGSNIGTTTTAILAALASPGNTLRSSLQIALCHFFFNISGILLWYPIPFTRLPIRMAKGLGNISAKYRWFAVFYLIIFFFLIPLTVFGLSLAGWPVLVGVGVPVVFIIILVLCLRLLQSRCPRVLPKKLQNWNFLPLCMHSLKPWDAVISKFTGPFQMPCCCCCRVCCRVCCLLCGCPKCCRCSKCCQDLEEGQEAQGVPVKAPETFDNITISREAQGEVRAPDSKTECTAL
Source text: as §1

T3 sequence (P08637 17-208 F176V limits assumed): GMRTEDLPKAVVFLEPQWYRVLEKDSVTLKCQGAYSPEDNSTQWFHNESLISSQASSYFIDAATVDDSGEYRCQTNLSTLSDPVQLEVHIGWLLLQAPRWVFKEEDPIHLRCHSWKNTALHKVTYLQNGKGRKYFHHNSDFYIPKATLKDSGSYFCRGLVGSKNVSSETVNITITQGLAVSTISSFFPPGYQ

B1: AV25 mAb, LALA-silenced (AV25 HC-LALA) (antibody, human IgG1, kappa, L234A L235A)
heavy: not shown
light: DIQMTQSPSSLSASVGDRVTITCSASQDIGNFLNWYQQKPGKTVKVLIYYASSLYSGVPSRFSGSGSGTDYTLTISSLQPEDFATYYCQQYSKLPLTFGQGTKLELKRTVAAPSVFIFPPSDEQLKSGTASVVCLLNNFYPREAKVQWKVDNALQSGNSQESVTEQDSKDSTYSLSSTLTLSKADYEKHKVYACEVTHQGLSSPVTKSFNRGEC
notes: also called unmodified AV25 mAb
[1]
  Kd: 2.7 nM
[2]
  binding result: no binding (tested: 200 nM)
[3]
  EC50 (read off the curve): ~0.5 µg/mL
FcγRIIIa (CD16) (V158)
  binding result: binds
[4]
  Kd: 1.52 nM
[5]
  Kd: 1.43 nM
